In a protein production outcome set (Wang et al. 2014):

Test: label from the status in PepcDB records
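Further: failed if final PepcDB status was selected cloned or expressed and not failed if soluble or beyond.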

Sequence	protein production
MDWITLLRSLQSDFIKRLSSGCLLHCEIEGQYSELTVISGERLKTLRDFCWLMAEKYKRVSPVRDVFISYLKGKLGEEVVKERLADLITEVDYEKRLGGDGKIDFTLTANPAIGIEVKSRHGNIDRVRWSVSAEEVEKNAVVVCIFIKEDVNEAQSSYHLLLAGFLPTQMIKLKTGNISFGIEQLLYGGGLWGYLEQLQASANYHQFQQSPPIYQYKPQPELLSKINQTQSIKPALFTGIKNILPYRQQEAINIDYIKIGDECFAQGEYTASIKNYSQALQASSDNCELYYKRGLSYYQLGDYEAAIADYSQAININLHDAKSYHKRGLALSQLAAYEAAIDDYNQAIRINPHAASIYKNRAEARSHLGDNQGAIEDYTQAIKINPQYADTYKNRGISRYLLATQPGFTQAIKINPNDANAYKNRGNARADIGDYLGAIEDYNQAIQINPKAADAYYNRGNARYDLGDEEGAIADYTQAIQINPSYADAYYNRGNVRAGIKDKQGAIADFQKAADIYRKEGKLAELKDTTERVVELEIEESIDILNF	failed
MGVHIDSVVFSRAGALLTLKDEAEISEIRVYSESEEIASQEIGKNKDNVFVSFNWDPEARYRFEVITGSGASGTIEAYAPSKPALKKEYTIELEDVTPGDIEKTSTNVEGALKFSPDSEYLAIGTNGGSLKLIKVATGEKVWEKQLVKGIADARIADIEFSEDGKRLFVGEESPDAFLYCFDLEGTEIWKYGAGKELGSDLKYMPAMKKIKLDSEGNIYVAASRACGYIGEKYKYLARIYSFDPEGNLRWKFPESEYMDSGVTWIDATPDGKYAVFGTTCFTETEKWREGTVHALNGNTGQEHWSYKIQPVEPFFDYSAIWYSTQITPDGEKLITMTSDGRAFLFNNSRIIETGTPEITWQQNISTPIVVSGVPIYGSANYAYIVNDTLIFSIGSTFSKDKNKDAPFEHPSGNSLFAYDYDGNLLWKWRVDGYAGECAVNDRYLVIPLAQNLVTEDRSVHGVYVFDASKSGGASSRLIQTYNTEGITVSADISPDGRYIAALEAPSRLDDGTVLGEYKVHILTLEHHHHHH	not failed
MSVGTSSAPGARQVPRPLAPRTSGDPADLGIDPDQLPDGLVVADEHGRVVCFNAAAVRITATPAAEALGQLLESALPLEDLEGRRWWQLTDPYGGLAIRVRQPERNLLLPGGREVLVTARYVRAERLGPVHRVVVTLRDTEARRRTERSHAELIATVAHELRSPLTSVKGFTATLLAKWERFTDDQKRLMLETVDADADRVTRLIAELLDISRIDSGRLEVRRQPVDIGAAVGRHIQAYVASGLEADRFLLRLAQPLPDLWADPDKVDQVLSNLLENAVRHGEGTVTIDVTPTASPREGEDTGTSVTVSDEGAGIPEESMNRVFTRFWRGSKRGGTGLGLYIVKGIVEAHGGTITVGRAPGGGAEFRFTLPVAAPAYLT	failed
KKGRFRERYSTRILDALPDMLTVFDHNANIVELASSPTTNHVEGTTSDSIINSNVKDIVPEEAYESVRHNMDKVIHTGKSSTAEHSLMLDGVLHHYENRIFPLDDQYLLCMCRDVS	failed
MKNYLQILRETLKAMLSKPMWLMVVASVCITSLPYMNHTALDLPVAVVDEDHSDVSRELVRLLDSAPKVAVVGYDSLPQAKRDLAWRKLYAIIVIPLNFEKRLLRGEALVIPYFGDATNRMANGQIQQDISAVYSALTNRYNAALLEREGFTATQAQVVLSPLVGQLTDLFNPGISFAAIVLPGLLSLILQHSLLLGCTRGNIMLRGGTPRYMRQPLSTRFGRYSAQLLIWTVLAMLFYVIWPHLLGYRQSASFFMLLGIVLPFLIAVIALSEFIAELLPTEESVYLTMTFITLPLFYMAGYSWPEQAMPDWVRWLADAIPSTWAIRAIAEMNQMDLPLREVSDHALVLLGMAATYALLGTLLYQYRNWRWDNVKGW	failed
MNTKPVLVILGPTASGKTELAFRIARQTGGEIISADSRQIYRGMDIGTAKPPRWMLDEVKHHFIDKKEIGEPFSAGDFAEQAAEKIRELHQRGITPVVAGGSTLYLEGLLKGFAELPPADPEIRAQLTRELERHGAEALYRRLEALDPEQAKTLDPTKTQRLIRSLEIIEISGTTVTALQSKTPGPPTGINFTVIGLDLPRELLYERINQRTSAMIQAGLEAEARYLFDKFRDEWRSKNLNALATVGYRELFEHFEELHDLDTAVSLIAQHTRNYAKRQLTFFRNRLDVEWVKAPLDEAEIEALVEFFSTRQDDSVPHSPIAIAKKQNA	failed
MWYPLAAMKGVLEALHQGDYDTAIDLLTRKALFGREREAKEAWLLLAEVYALYGEEGLEKAHHALEEAYALGGLEYDPLYRSLLAELLALEGRPEREVLPLFLPSRDPRVRYHQAQALFYLGRLEEALEVLEAGLPPHLAWRAEGLKGRILERLGRHGEAALAYERGAELALGLERYWLLLDAAAMWLEAGEGERALLALKEAEAAVGEEDPEDAATRHYLLARAHLLLGNPGLALEEIRKALALEEESGHKAYGTPLVEGQALLQLGRYEEAMASFREALARADAGERPHVLHEMGVAALDHGAYPEAEEHLRALVREEGYPYLAQAYADLAEALYRQGRYQEAEAAAREAVARGAVAAGELVLGHVAYDLLHLEEALEHYRKAAESAEEGSREWVGAQEMVVDTLAQLGYRFPEEMVRRGQAVLPYLHPADEWHAALTAYVERAQALLREGKRLN	failed
MLRRALEEAIAQALKEMGVPVRLKVARAPKDKPGDYGVPLFALAKELRKPPQAIAQELKDRLPLPEFVEEAVPVGGYLNFRLRTEALLREALRPKAPFPRRPGVVLVEHTSVNPNKELHVGHLRNIALGDAIARILAYAGREVLVLNYIDDTGRQAAETLFALRHYGLTWDGKEKYDHFAGRAYVRLHQDPEYERLQPAIEEVLHALERGELREEVNRILLAQMATMHALNARYDLLVWESDIVRAGLLQKALALLEQSPHVFRPREGKYAGALVMDASPVIPGLEDPFFVLLRSNGTATYYAKDIAFQFWKMGILEGLRFRPYENPYYPGLRTSAPEGEAYTPKAEETINVVDVRQSHPQALVRAALALAGYPALAEKAHHLAYETVLLEGRQMSGRKGLAVSVDEVLEEATRRARAIVEEKNPDHPDKEEAARMVALGAIRFSMVKTEPKKQIDFRYQEALSFEGDTGPYVQYAHARAHSILRKAGEWGAPDLSQATPYERALALDLLDFEEAVLEAAEERTPHVLAQYLLDLAASWNAYYNARENGQPATPVLTAPEGLRELRLSLVQSLQRTLATGLDLLGIPAPEVM	not failed
MEQHIGELIAHYGYFGIVIALAGGIVGLPIPDEFLLTFVGYNVSKGVMSGTAAFLSGLAGAMLGITLSYILGLKLGLPVLKKYGPKIRIKEHHIEKTHILFEKYGPFLLMIGYFIPGVRHLTAYFAGVSNLTLWRFCLYAYGGALIWISVFIGLGWKLGEKWRFVEYSLHHYGIWILLISAVVTCFVWLYIKKKKNR	failed
MSETTQTSQSLYQALWNSADVLRSKMDANDYKSYLLGMVFYKYLSDKMLFFVAETMEEETESLDEALAVYRKYYEDEETHEDLLAVITDEMSYAIHPDLTFTALVERVNDGSFQLEDLAQGFRDIEQSDELYENLFEDIDLYSKKLGATPQKQNQTVAAVMKELAVLDVAGHAGDMLGDAYEYLIGQFATDSGKKAGEFYTPQPVAKLMTQIAFLGREDKQGFTLYDATMGSGSLLLNAKRYSRQPQTVVYFGQELNTSTYNLARMNMILHGVPIENQFLHNADTLDEDWPTQEPTNFDGVLMNPPYSAKWSASSGFMDDPRFSPFGKLAPKSKADFAFLLHGYYHLKQDNGVMAIVLPHGVLFRGNAEGTIRKALLEEGAIDTVIGLPANIFFNTSIPTTVIILKKNRTNRDVYFIDASKEFDKGKNQNIMTDAHIEKILNAYKSREDIDKFAHLASFEEIVENDYNLNIPRYVDTFEEEEVEPLTEIVAKINQTNATIESQTASLLDMLGQLHGTTPEADEELKAFVKAFKGLEHHHHHH	failed
MDILDLNKAQAVQQNEQEVEDKERESKEPVVLEDLSALAWLELEEFSRLSGLPKERILELVNLGKIKSKISSNKLLIDASSGTNALIKKVENSLISMDMNGRSLEPVFVEKTINTILNLHDKVIGAKDETISAFKNENMFLKDALISMQEVYEEDKKTIDLLRDELNQAREEIEFMKRKYRLMWGKVADMSSVNKK	failed
MSYQPTSLTVASYNLRNANGSDSARGDGWGQRYPVIAQMVQYHDFDIFGTQECFLHQLKDMKEALPGYDYIGVGRDDGKDKGEHSAIFYRTDKFDIVEKGDFWLSETPDVPSKGWDAVLPRICSWGHFKCKDTGFEFLFFNLHMDHIGKKARVESAFLVQEKMKELGRGKNLPAILTGDFNVDQTHQSYDAFVSKGVLCDSYEKCDYRYALNGTFNNFDPNSFTESRIDHIFVSPSFHVKRYGVLTDTYRSVRENSKKEDVRDCPEEITIKAYEARTPSDHFPVKVELVFDLEHHHHHH	not failed
MSWFTTQRHSGLCRDFGRRWRRVATISSAIALICAQPLFAVPAAKPNEDFFSIAKSIELLGDVYKNVAQNYVDPVNVSEFMYSGIDGMLGQLDPYTAFLDEEQSGELDEITSGQYAGIGVTLGIFSGDLFIISVIDGQPAAKAGLKVGDQIIAIDGVKVSKKSIDEVRSTIKGSPGTNIRLSIKRDGQGPLTVISLTRGEVRISSVPFFGLFGSSGYVQMNSFSEHSREELSAAIRKIRQEAAKNRVVLNGIVLDLRGNPGGLLTSAVEVAGLFVEKNSRIVSTRGRAADSEQVYVTKTEPQEPTLPLVVMIDGDSASASEIVSGAIQELDRGVILGENSFGKGLVQSIINLPYDHILKMTTAKYYTPSGRLIQKPIARDESRRKVVLSNGDADSTKVFYTRNRRKVYGGGGIRPDVVAKADSLSEYQHKIENSGLLFRYASRFHRKHPEFRLQQLSSEPLYDDFNRFLEKEHFSFRSGAQKTLDSLKTLVQKEAGADKALAGQLDALDKALAASTRRNISRDSLHITAALQREIMRHYDERAALKRAIEDDPVAAKAFALLGDQKRYRSLLKP	failed
MSGIEAKNLWHRLNNLALVRFLLLVAAGWAIVQLLAYFETVIIIFTFAAILAFLLSYPVQWLRRFLPHSVAVVVVFLISIVILGGLLITVGVALLSQGQQLIDSISAFLTSLLPFLERIERLLSNRNLQIDLSVIQEQLRTQAVSTLVTSLAIVQQFLTNFVTFILIAVVAFFMLLDGEKLWNFILKIVPQKRRIRFTNIMRRSFLGFFRGQLLLCLFLTSSTFIIFLLLQVPFALILSVIVGILDIIPGIGATLGVGTITLIVLSQDVWLALKVLAACVVLQQIQDNLISPRIMQGSLNLNPVVVFFALLVGARVAGLLGVFISIPITGVIVSLFEIDEMKSEV	failed
MGRAHVSTHELVAGRYRLFEVVQRETNRVCWSGEDATTGRPCLVTRIELPEGRAGEAARRAPGRVIRTGETMASLCPGRIAPVLDAVVADGMLWTVTEWVAGVPLGDLLDRRGAFGCARAARVGLELLAVLEAAHTHGVTHGELSPGQVFVREEGSVLVTGFGLAGATLAPRLTAPAYASPEQARDERIGPAADLWTLGAILYTMVEGRPPFRDRGRPEATLKGVDRLPLRTPVRAGPLAQAVTGLLRKNSRERPTRPVVRAALARALAEDPGTAVTEVTTGPGVRGGYAAARTAGRDRSRRTVAAGTALAVVTVAVAVLADLAVTDGLPGRGDGAAAGARQRPSASAAPPTGSAPAAASPGSPSSPAGRPSASASPSKPGVPAPAGFRRYDAPEGFSVALPEGWRRLDTASAPGGAYRVVFGASGDPRTLAVTYSRRAGADPVVVWRDDVEPGLARSDGYRRIGEIRSTTYRGRAAADMEWLVRDDGTRLRTFGRGFLLGGGRSFSLRWTTPAGDWDDSANERALAAFLGTFRDGAA	failed
MNKGFILKALFLLCFLFSQTAQGQSFTPGEIWPDNHQVHINAHGGGILYENGTYYWFGEHKTEGEAGNLANVGVHCYSSDDLYHWKDCGIALSVIENDPGHPISKGCILERPKVIYNPLTKKYVMWFHLEPKGAGYSGALSGIALSDRVTGPYTFLKAVRPNAGSWPINVLPIHKTTRRPSAEEERQCTGGSLPAHPDSLNILGRDMEQGQMARDMNLFVDDDGKAYHIYSSEENSTLHIAELDPTYTGYTGKYIRVFINRFMEAPAMFKKDGNYYLIMSGCSGWNPNAARSAIASSIWGEWKELGNPCIGQDADLTFHSQSTYILPVQGKKNQFIYMGDRWTPQNAIDGRYIWLPIHFEGPKPIIEWKDSWTLD	failed
